Assay results taken from FireProtDB (doi:10.1021/bi000849s).

B1: Lysozyme C, P61626 (parent)
chain: MKALIVLGLVLLSVTVQGKVFERCELARTLKRLGMDGYRGISLANWMCLAKWESGYNTRATNYNAGDRSTDYGIFQINSRYWCNDGKTPGAVNACHLSCSALLQDNIADAVACAKRVVRDPQGIRAWVAWRNRCQNRDVRQYVQGCGV

Variants of: B1
Conditions: Homo sapiens, Thermal, DSC, reversible: yes, structure 1LZ1, whole UniProt chain shown; for ddG of mutation (higher = less stable) / unfolding free energy: 65 °C
[1] = pH 2.2, glycine hydrochloride 0.05 M
[2] = pH 2.3, glycine hydrochloride 0.05 M, KCl 0.2 M
[3] = pH 4.5, sodium acetate 0.02 M, KCl 0.2 M

Variant	Tm [1]	change of melting temperature, mutant - wild type (higher = more stable) [1]	Tm [2]	change of melting temperature, mutant - wild type (higher = more stable) [2]	ddG of mutation (higher = less stable) (pH 4, sodium acetate 0.02 M)	unfolding free energy (pH 4, sodium acetate 0.02 M)	ddG of mutation (higher = less stable) [3]	unfolding free energy [3]	Tm [3]	change of melting temperature, mutant - wild type (higher = more stable) [3]	Tm (pH 4, sodium acetate 0.02 M)	change of melting temperature, mutant - wild type (higher = more stable) (pH 4, sodium acetate 0.02 M)
D120N	58.1 °C	0.6 °C	56.7 °C	0.5 °C	0.67 kcal/mol	4.76 kcal/mol	-0.07 kcal/mol	4.13 kcal/mol	77.9 °C	0.2 °C	–	–
D67N	57.5 °C	0 °C	–	–	1 kcal/mol	4.42 kcal/mol	–	–	–	–	77.4 °C	-2.7 °C
E25Q	57.8 °C	0.3 °C	54.6 °C	-1.6 °C	1.43 kcal/mol	3.99 kcal/mol	1.29 kcal/mol	2.77 kcal/mol	75.5 °C	-2.2 °C	76.2 °C	-3.9 °C
D36N	56 °C	-1.5 °C	–	–	–	–	–	–	–	–	75.5 °C	-4.6 °C
D85N	56.8 °C	-0.7 °C	55.2 °C	-1 °C	2.25 kcal/mol	3.18 kcal/mol	1.7 kcal/mol	2.37 kcal/mol	72.5 °C	-5.2 °C	74 °C	-6.1 °C
D138N	57.8 °C	0.3 °C	56.9 °C	0.7 °C	0.67 kcal/mol	4.76 kcal/mol	-0.05 kcal/mol	4.13 kcal/mol	77.8 °C	0.1 °C	78.3 °C	-1.8 °C
